The source of these data is publication PMC5736413 (Journal of immunology (Baltimore, Md. : 1950), 2017).

As a reminder, the Kd is the concentration at which binding is half-saturated.

This test concerns the target recombinant mouse Factor H (mouse, UniProt P06909 19-1234). Kind of test: SPR.

recombinant mouse Factor H, sequence (P06909 19-1234): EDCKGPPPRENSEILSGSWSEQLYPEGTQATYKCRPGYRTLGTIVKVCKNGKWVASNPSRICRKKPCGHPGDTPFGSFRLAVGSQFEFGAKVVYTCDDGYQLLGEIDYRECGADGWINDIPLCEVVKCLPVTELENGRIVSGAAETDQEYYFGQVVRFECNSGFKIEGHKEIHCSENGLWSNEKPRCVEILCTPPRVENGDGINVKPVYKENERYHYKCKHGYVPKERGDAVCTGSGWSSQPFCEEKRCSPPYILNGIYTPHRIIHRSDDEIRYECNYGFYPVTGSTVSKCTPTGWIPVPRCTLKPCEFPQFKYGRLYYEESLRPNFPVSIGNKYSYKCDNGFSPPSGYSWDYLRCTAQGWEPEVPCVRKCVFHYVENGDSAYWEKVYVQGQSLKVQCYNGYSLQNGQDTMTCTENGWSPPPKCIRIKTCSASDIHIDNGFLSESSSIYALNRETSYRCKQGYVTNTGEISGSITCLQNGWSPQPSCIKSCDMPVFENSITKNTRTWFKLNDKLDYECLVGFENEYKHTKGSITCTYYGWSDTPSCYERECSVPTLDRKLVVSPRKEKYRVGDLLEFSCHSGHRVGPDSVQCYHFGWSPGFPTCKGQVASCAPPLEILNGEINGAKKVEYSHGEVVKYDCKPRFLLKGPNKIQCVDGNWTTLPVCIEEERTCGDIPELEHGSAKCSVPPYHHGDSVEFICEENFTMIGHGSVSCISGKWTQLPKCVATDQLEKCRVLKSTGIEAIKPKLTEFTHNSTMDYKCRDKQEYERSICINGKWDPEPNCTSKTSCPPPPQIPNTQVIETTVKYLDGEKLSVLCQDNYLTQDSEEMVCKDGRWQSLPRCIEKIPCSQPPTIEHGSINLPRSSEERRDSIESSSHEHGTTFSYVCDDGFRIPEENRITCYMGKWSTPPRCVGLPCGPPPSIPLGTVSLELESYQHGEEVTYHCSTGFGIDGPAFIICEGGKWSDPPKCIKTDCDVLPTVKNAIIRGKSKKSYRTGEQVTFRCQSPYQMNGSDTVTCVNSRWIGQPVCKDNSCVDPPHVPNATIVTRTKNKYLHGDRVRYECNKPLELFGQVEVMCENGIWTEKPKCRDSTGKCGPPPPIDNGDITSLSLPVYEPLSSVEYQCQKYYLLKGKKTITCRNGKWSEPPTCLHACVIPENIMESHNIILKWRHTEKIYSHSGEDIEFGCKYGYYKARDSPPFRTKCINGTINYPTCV

B1: recombinant mouse C3d (C1010A) (domain or fragment)
chain: not shown
Turning to B1, the equilibrium dissociation constant (Kd) stood at 3.85 µM.
